Data on four molecules can be found in patent US20230099149A1 (INNATE PHARMA, published 2023).

Assay [1] deals with T1, modified Nectin-4 having the Ig-like C2 type 1 and the Ig-like C2 type 2 domains and lacking the Ig-like V … (human, UniProt Q96NY8 148-510).
T1 construct: also called C1C2 construct
T1 sequence: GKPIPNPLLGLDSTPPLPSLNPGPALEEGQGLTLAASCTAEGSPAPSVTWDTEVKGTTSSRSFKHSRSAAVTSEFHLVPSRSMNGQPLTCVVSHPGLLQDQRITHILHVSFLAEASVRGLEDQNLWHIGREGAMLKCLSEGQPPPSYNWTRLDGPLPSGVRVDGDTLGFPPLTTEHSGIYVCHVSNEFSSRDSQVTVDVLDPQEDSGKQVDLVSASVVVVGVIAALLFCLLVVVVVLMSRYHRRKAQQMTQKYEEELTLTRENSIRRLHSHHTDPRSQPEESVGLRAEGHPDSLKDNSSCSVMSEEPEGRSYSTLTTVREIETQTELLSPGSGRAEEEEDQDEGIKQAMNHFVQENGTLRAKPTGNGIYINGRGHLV
Put plainly: flow cytometry on CHO cells expressing Nectin4-C1C2-V5. Background: In flow cytometry, cells or beads pass a laser one at a time.

Assay [2] addresses T2, human Nectin-4 at the surface of SUM185 and SUM190 human breast cancer tumor cells (human, UniProt Q96NY8 32-510).
T2 sequence: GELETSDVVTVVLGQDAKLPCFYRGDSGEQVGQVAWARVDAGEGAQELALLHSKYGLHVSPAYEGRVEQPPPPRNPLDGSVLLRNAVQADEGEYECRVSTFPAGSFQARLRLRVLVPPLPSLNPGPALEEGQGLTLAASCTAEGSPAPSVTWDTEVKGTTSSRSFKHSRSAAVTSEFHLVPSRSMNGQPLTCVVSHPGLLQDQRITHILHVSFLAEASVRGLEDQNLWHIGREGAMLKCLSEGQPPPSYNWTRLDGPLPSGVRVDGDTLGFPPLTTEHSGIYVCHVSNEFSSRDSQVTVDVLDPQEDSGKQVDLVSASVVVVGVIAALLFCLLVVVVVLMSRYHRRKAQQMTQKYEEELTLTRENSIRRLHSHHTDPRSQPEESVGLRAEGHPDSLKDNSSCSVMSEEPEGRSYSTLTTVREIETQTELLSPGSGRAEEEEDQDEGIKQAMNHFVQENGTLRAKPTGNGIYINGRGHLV
Put plainly: cell-based or functional assay.

Assay [3] deals with T3, wild-type human Nectin-4 protein expressed on CHO cells (huNectin4 CI.3C8 cell line) (human, UniProt Q96NY8 32-510).
T3 construct: also called whole Nectin-4 protein; wild type Nectin-4
T3 sequence: T2 sequence
Nature of the assay: flow cytometry on CHO cells expressing wild-type human Nectin-4.

B1: enfortumab (VH and VL of SEQ ID NOS: 3 and 4 as human IgG1 isotype) (antibody, V domains shown)
VH: EVQLVESGGGLVQPGGSLRLSCAASGFTFSSYNMNWVRQAPGKGLEWVSYISSSSSTIYYADSVKGRFTISRDNAKNSLSLQMNSLRDEDTAVYYCARAYYYGMDVWGQGTTVTVSS
VL: DIQMTQSPSSVSASVGDRVTITCRASQGISGWLAWYQQKPGKAPKFLIYAASTLQSGVPSRFSGSGSGTDFTLTISSLQPEDFATYYCQQANSFPPTFGGGTKVEIKR
notes: also called mAbA; ASG-22ME
Regarding B1, the binding result in assay [1] is given as “no binding”.

B2: N4 ADC1: anti-Nectin-4 antibody (VH and VL of SEQ ID NOS: 9 and 10, human IgG1) conjugated to a linker-camptothecin analogue (antibody, V domains shown)
VH: QVQLKQSGPGLVQPSQSLSITCTVSGFSLTNYGVHWVRQSPGKGLEWLGVIWSGGSTDYNAAFISRLSISKDTSKSQVFFKMNSLQADDTAIYYCARELIHAMDNWGQGTSVTVSS
VL: DIQMTQSPASLSVSVGETVTITCRASENIYSNLAWYQQKQGNSPQLLVFAATNLADGVPSRFSGSGSGTQYSLKINSLQSEDFGTYYCQHFWGTPTFGGGTKLEIK
modifications: linker-camptothecin analogue conjugated stochastically via cysteine residues after partial reduction of interchain disulfide; average drug:antibody ratio of about 8
For B2, in assay [2], the “IC50 of cell death, SUM185 cells, Cell Titer Glo viability at day 6” value is 0.05 nM and the “IC50 of cell death, SUM190 cells, Cell Titer Glo viability at day 6” value was 0.1 nM.

B3: N4 ADC2: anti-Nectin-4 antibody (VH and VL of SEQ ID NOS: 9 and 10, human IgG1) conjugated to a SN-38 containing linker (antibody, V domains shown)
VH: B2 VH
VL: B2 VL
modifications: SN-38 containing linker conjugated via cysteine residues after partial reduction of interchain disulfide
For B3, the “IC50 of cell death, SUM190 cells, Cell Titer Glo viability at day 6” value in assay [2] was determined as 0.4 nM.

B4: N41 (VH and VL of SEQ ID NOS: 9 and 10 as human IgG1 isotype) (antibody, V domains shown)
VH: B2 VH
VL: B2 VL
notes: also called mAbC
On to B4, for which the binding result is given as “no binding” in assay [1] and “binds” in assay [3].
